Columns and labels:
O=C(O)CCCO = assay: purified protein, by the assay type; conditions: other: ATP/NADPH dependent reduction; pH 7.5
CCCC=O [1] = assay: AR kinetics, aldehyde reduction followed by NAD(P)H oxidation; type: biochemical, Pseudomonas syringae; conditions: other: butyraldehyde; cofactor NADPH; pH 7.5
Excerpt: (§1) 28 aldehyde reductases from different bacteria were cloned and overexpressed in E. coli. Enzymes purified using affinity chromatography on Ni-NTA resin were screened for reductase activity with adipaldehyde and butyraldehyde in presence of both NADPH and NADH (Table 5). Butyraldehyde was used as a substrate substitute for 4-oxo-butanal, which is not commercially available. Reactions were followed spectrophotometrically, by cofactor oxidation at 340 nm.
(§2) Enzyme activity of purified ARs was measured spectrophotometrically in 96-well plates Reaction mixtures contained 100 mM HEPES buffer (pH 7.5), 0.4 mM NADH/NADPH, 10 mM adipaldehyde or butylaldehyde, and proteins (10 μg for adipaldehyde screen, 2 μg for butyraldehyde screen) in a final volume of 200 μL Reaction mixture for adipaldehyde screening contained 1.8% DMSO. Enzyme reactions were monitored by following the decrease in absorbance at 340 nm (ε340 nm=6,220/M·cm) due to oxidation of NAD(P)H to NAD(P)+.
(§3) ARs RHA1_ro05279, PA1146, SC00229, PP_3370 were characterised for saturation with adipaldehyde, PP_3370, PSPTO_2097, RHA1_ro05279, SC00229, TM_0111, PA1146 were characterised for butyraldehyde saturation (Table 10). […] For both substrates maximal kcat/Km with minimal Km values was shown by AR PP 3370 from Pseudomonas putida.

O=C(O)CCCCCO = assay: purified protein, by the assay type; conditions: pH 7.5
O=CCCCCC=O = assay: AR kinetics, aldehyde reduction followed by NAD(P)H oxidation; type: biochemical, Pseudomonas aeruginosa; conditions: other: adipaldehyde; cofactor NADH; 1,8% DMSO; pH 7.5
Excerpt: as §1, §2, §3

CCCC=O [2] = assay: as above; type: biochemical, Pseudomonas aeruginosa; conditions: other: butyraldehyde, pH 7.5
Excerpt: as §1, §2, §3

Mycobacterium smegmatis carboxylate reductase MSMEG_5739, SEQ ID NO: 37 (Mycolicibacterium smegmatis MC2 155)
Km (O=C(O)CCCO): 37.84 ± 2.39 mM | kcat (O=C(O)CCCO): 0.51 ± 0.017 s⁻¹ | kcat/Km (O=C(O)CCCO): 13.5 ± 0.45 M⁻¹ s⁻¹

Pseudomonas syringae aldehyde reductase PSPTO_2097, SEQ ID NO: 46 (Pseudomonas syringae pv. tomato str. DC3000)
Km (CCCC=O [1]): 10.3 ± 1.06 mM | kcat (CCCC=O [1]): 12.2 ± 0.63 s⁻¹ | kcat/Km (CCCC=O [1]): (1.18 ± 0.06) × ×10^3 M^−1 · s^−1

Mycobacterium smegmatis carboxylate reductase MSMEG_2956, SEQ ID NO: 70 (Mycolicibacterium smegmatis MC2 155)
Km (O=C(O)CCCO): 69.57 ± 4.16 mM | kcat (O=C(O)CCCO): 0.513 ± 0.017 s⁻¹ | kcat/Km (O=C(O)CCCO): 7.37 ± 0.24 M⁻¹ s⁻¹

Mycobacterium paratuberculosis carboxylate reductase MAP_1040c, SEQ ID NO: 38 (Mycobacterium avium subsp. paratuberculosis MAP4)
Km (O=C(O)CCCCCO): 70.1 ± 7.04 mM

Pseudomonas aeruginosa aldehyde reductase PA1146, SEQ ID NO: 43 (Pseudomonas aeruginosa PAO1)
Km (O=CCCCCC=O): 9.0 ± 1.99 mM | kcat (O=CCCCCC=O): 5.45 ± 0.56 s⁻¹ | kcat/Km (O=CCCCCC=O): (6.02 ± 0.06) × ×10^2 M^−1 · s^−1 | Km (CCCC=O [2]; cofactor NADH): 15.6 ± 5.94 mM | kcat (CCCC=O [2]; cofactor NADH): 9.01 ± 01.9 s⁻¹ | kcat/Km (CCCC=O [2]; cofactor NADH): (5.76 ± 1.22) × ×10^2 M^−1 · s^−1 | Km (CCCC=O [2]; cofactor NADPH): 3.37 ± 0.9 mM | kcat (CCCC=O [2]; cofactor NADPH): 0.84 ± 0.08 s⁻¹ | kcat/Km (CCCC=O [2]; cofactor NADPH): (2.49 ± 0.24) × ×10^2 M^−1 · s^−1

Mycobacterium smegmatis carboxylate reductase MSMEI_5586, SEQ ID NO: 35 (Mycolicibacterium smegmatis MC2 155)
Km (O=C(O)CCCO): 19.63 ± 4.88 mM | kcat (O=C(O)CCCO): 0.152 ± 0.013 s⁻¹ | kcat/Km (O=C(O)CCCO): 7.74 ± 0.66 M⁻¹ s⁻¹
